Assay results: article PMC12860359, “Selection and optimization strategy for Rap1-targeting single-domain antibodies as platelet activation markers” (Research and Practice in Thrombosis and Haemostasis, 2025)
Substitutions are numbered along the chain they refer to. Each block holds one binder with its values, some of them ahead of it.

How the values were obtained:
LexA-Rap1B G12V = target: T1, LexA-Rap1B G12V (Homo sapiens, G12V)
T1 chain: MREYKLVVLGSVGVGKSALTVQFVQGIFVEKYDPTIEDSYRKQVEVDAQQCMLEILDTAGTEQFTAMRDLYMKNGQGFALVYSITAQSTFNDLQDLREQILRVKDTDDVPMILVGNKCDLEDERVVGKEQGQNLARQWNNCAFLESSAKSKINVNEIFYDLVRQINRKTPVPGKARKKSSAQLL

VHH-hFcS B14 = target: T2, VHH-hFcS B14; test: ELISA; VHH-FcS (1.25 μg/mL) captured on goat antihuman Fc (Fab')2-coated plates; human platelet lysates (6 × 10^6 platelets/well) loaded with GTPγS, or PRP before and after stimulation with TRAP or ADP; detection with anti-Rap1 monoclonal (Abcam) or polyclonal (Merck) antibody; conditions: one partner purified
T2 construct: as the VHH of m19 (A47); Bivalent VHH-Fc; also called VHH-Fc B14; source: HEK293, transfected (pHLSec), serum-free medium, purified

VHH-hFcS A47 [1] = target: T3, VHH-hFcS A47; test: as above; conditions: one partner purified
T3 construct: VHH A47; Bivalent VHH-Fc; also called VHH-FcS A47; VHH-Fc silent A47; source: HEK293, transfected (pHLSec), serum-free medium, purified

[2] = target: T4, VHH-Fc A64 (immunoprecipitation); test: co-IP; immunoprecipitation: VHH-Fc (1-2 μg) on Protein A/G magnetic beads incubated overnight at 4 °C with human platelet lysates (~200 μg protein) loaded with GTPγS or from platelets stimulated with TRAP or ADP; Rap1 western blot; conditions: one partner purified
T4 construct: VHH A64; source: HEK293, transfected; 2 μg used

VHH-hFcS B89 [3] = target: T5, VHH-hFcS B89; test: as above; conditions: one partner purified
T5 construct: as the VHH of m19 (A47); Bivalent VHH-Fc; Some immunoprecipitations name only 'VHH-Fc B89' without the kind of Fc; also called VHH-Fc B89; source: HEK293, transfected (pHLSec), serum-free medium, purified

VHH-hFcS A47 [4] = target: T3, VHH-hFcS A47; test: BLI; OCTET R2; VHH-hFcS (2.5 μg/mL) on protein A biosensors; Rap1B loaded with GTPγS in solution at 0.04, 0.13, 0.4, 1.2 μM; 20 mM Tris-HCl pH 7.4, 0.1% BSA, 200 mM NaCl, 2 mM EDTA, 10 mM MgCl2; 25 °C; 1:1 fit; conditions: both partners purified
VHH-hFcS B89 [5] = target: T5, VHH-hFcS B89; test: as above; conditions: both partners purified

binding result (LexA-Rap1B G12V): binds
B1: A141 (VHH)
VHH: EVQLQASGGGFVQPGGSLRLSCAASGATSKLSAMGWFRQAPGKEREFVSAISAQNDFWTYYADSVKGRFTISRDNSKNTVYLQMNSLRAEDTATYYCAHHFPSTAKSYWGQGTQVTVSS

Kd (VHH-hFcS A47 [4]): 17.2 nM
Kd (VHH-hFcS B89 [5]): 4.4 nM
koff (VHH-hFcS B89 [5]): 0.000513 s⁻¹
kon (VHH-hFcS B89 [5]): 166000 M⁻¹ s⁻¹
B4: MBP-HA Rap1B WT (natural protein, human, UniProt P61224-1 1-184, looked up)
chain: T1 chain with V12G
notes: loaded with GTPγS or GDP before the assays; this is the only recombinant wild-type Rap1B it describes; also called human Rap1B; recombinant Rap1B; source: E. coli BL21DE3, purified (amylose resin); not shown: MBP, N-terminal, kept; HA, N-terminal, kept

Second part, the binder before the results:

B2: A145 (VHH)
VHH: EVQLQASGGGFVQPGGSLRLSCAASGATWKHEIMGWFRQAPGKEREFVSAISSQPGLWDYYADSVKGRFTISRDNSKNTVYLQMNSLRAEDTATYYCATPGQRMIEYWGQGTQVTVSS
binding result (LexA-Rap1B G12V): binds

B3: Rap1 of human platelets (natural protein, human (endogenous in platelets), UniProt P61224 1-184, looked up)
chain: MREYKLVVLGSGGVGKSALTVQFVQGIFVEKYDPTIEDSYRKQVEVDAQQCMLEILDTAGTEQFTAMRDLYMKNGQGFALVYSITAQSTFNDLQDLREQILRVKDTDDVPMILVGNKCDLEDERVVGKEQGQNLARQWNNCAFLESSAKSKINVNEIFYDLVRQINRKTPVPGKARKKSSC
notes: also called active Rap1; source: endogenous, human platelet lysate
binding result (VHH-hFcS B14): binds
binding result (VHH-hFcS A47 [1]): binds
binding result [2]: binds
binding result (VHH-hFcS B89 [3]): binds
